The target in one test is T1, murine PSCA (mouse, UniProt P57096 21-95).
T1 construct: whole, on cells; also called mouse PSCA; Mouse-PSCA
T1 sequence (looked up): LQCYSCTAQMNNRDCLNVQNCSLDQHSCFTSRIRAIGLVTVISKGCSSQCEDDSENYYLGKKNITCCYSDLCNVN
Description: FACS on 293T cells expressing murine PSCA, anti-hIgG-PE.

Test [1] concerns the target T2, PSCA (prostate stem cell antigen), human (human, UniProt O43653 12-83).
T2 construct: Tested on cells: SW780, LAPC9AI, PC3-PSCA, B300.19-PSCA, prostate cancer xenograft cells and tumour tissue; also called PSCA v.1; PSCA variant 1
Description: FACS titration on SW780 cells, anti-hIgG-PE, Prism sigmoidal dose-response fit.
Description: A panel of seven (7) anti-human PSCA antibodies was tested for their binding affinity to PSCA on SW780 cells, a human bladder cancer cell line expressing high level of PSCA. […] At the end of the incubation, cells were washed and incubated with anti-hIgG-PE detection antibody for 45 min at 4° C. After washing the unbound detection antibodies, the cells were analyzed by FACS; MFI values of each point were obtained using CellQuest Pro software and were used for affinity calculation using Graphpad Prism software: Sigmoidal Dose-Response (variable slope) equation (Table VII and Table VIII).

Binding result and Kd data for 4 molecules are collected here from patent US20090181034A1 (AGENSYS, published 2009).

What is called Kd is the concentration at which binding is half-saturated.

Description for murine PSCA: The cells were incubated with the respective antibodies using the following protocol. […] Specific recognition was determined using anti-hIgG-PE secondary detection antibody.

B1: Ha1-4.117 (antibody, V domains shown)
VH: QVQLQESGPGLVKPSQTLSLTCTVSGGSISSGGYYWIWIRQHPGKGLEWIGYIYYNGNTYYNPSLKSRVTMSVDTSKNQFSLKLSSVTAADTAVYYCARDGITMIRGYYYGMDVWGQGTTVTVSS
VL: QLTQSPSSVSASVGDRVTITCRASRGISSWLAWYQQKPGKAPKLLIYTASSLQSGVPSRFSGSGSGTDFTLTISSLQPEDFATYYCQQAYSFPRTFGQGTKVEIKR
notes: Fully human MAb from human gamma 1 producing XenoMouse (IgG1, kappa), hybridoma ATCC PTA-6699; A fluorescein conjugate was used for IHC
For B1, the binding result with murine PSCA is reported as “binds”. In test [1], this molecule had a Kd of 0.32 nM.

B2: Ha1-5.99 (antibody, IgG2, V domains shown)
VH: QVHLQQWGAGLLKPSETLSLTCAVYGGSFSGYYWSWIRQPPGKGLEWIGEINHSGSTSYKPSLKSRVTVSVDTSKNQFSLKLSYVTAADTAVYYCARDRGDYGDFLFDYWGQGTLVTVSS
VL: SPGERATLSCRASQSIGSTYLAWYQQKPGQAPRLLIYGASSRATGIPERFSGSGSGTDFTLTISGLEPEDFAVFYCQQCGSSPPTFGQGTKVEIKR
notes: Fully human MAb from human gamma 2 producing XenoMouse (IgG2, kappa), hybridoma ATCC PTA-6703; Ha1-5.99.1 (subclone label) is treated as the same antibody; also called HA1-5.99.1; Ha1-5.99.1
As to B2, the Kd in test [1] amounted to 0.28 nM.

B3: Ha1-1.16 (antibody, IgG1, V domains shown)
VH: QVQLQQSGPGLVKPSQTLSLTCAISGDSVSSNSAAWNWIRQSPSRGLEWLGRTYYRSKWYNGYAVSVKSRMTINPDTSKNQFSLQLNSVTPEDTAVYYCARERLGELYGMDVWGQGTTVTVSS
VL: QLTQSPDSLAVSLGERATINCKSSQNILYRSSKKNHLVWYQQKPGQPPKLLIYWASTRESGVPARFSGSGSGTDFTLTISTLQAEDVAVYYCQQYYSTPPTFGQGTRLEIKR
notes: Fully human MAb from human gamma 1 producing XenoMouse immunized with PSCA-GST (IgG1, kappa), hybridoma ATCC PTA-6698; Ha1-1.16.1 (subclone label) is treated as the same antibody; also called Ha1-1.16.1
With B3, the binding result in the test with murine PSCA is “no binding”. Moreover, in test [1], the affinity, expressed as Kd, was 6.91 nM.

B4: Ha1-4.37 (antibody, IgG1, V domains shown)
VH: PGALQESGPGLVRPSQTLSLTCTVSGGSISSGGTYYWIWIRQHPGKGLEWIGYIYYSGSTYYNPSLKSRVTISVDTSKNQFSLKLSSVTAADTAVYYCARDGITMVRGISGGMDVWGQGTTVTVSS
VL: ASVGDRVTITCRASQSISSHLNWYQQKPGKAPKLLIYAASSLQSGVPSRFSGSGSGTDFTLSISSLQPEDFATYFCQQSYSIPRTFGQGTKVEITR
notes: Fully human MAb from human gamma 1 producing XenoMouse (IgG1, kappa), hybridoma ATCC PTA-6702
Turning to B4, in test [1], binding was characterised by a dissociation constant (Kd) of 0.23 nM.
